The values below come from patent US20140134169A1, “Methods of Treating Ovarian Cancer with Dll4 Antagonists” (Regeneron Pharmaceuticals, Inc., priority 2012, published 2014).

A short description of series [1]: Phase I pharmacokinetics, single 30-min IV infusion, ELISA. The series is classed as in vivo, human. The protocol:
REGN421 is currently being studied in a first-in-human trial. The primary objective of the study is to determine the recommended dose of REGN421 for future efficacy trials. The secondary objectives are to characterize the drug safety profile, its pharmacokinetics, immunogenicity, and pharmacodynamics, as well as preliminary evidence of efficacy. In this study, anti-hDll4 antibody REGN421 is administered intravenously every 3 weeks to patients whose cancer has progressed on conventional therapy. The study design follows standard methodology for dose escalation and definition of dose-limiting toxicity. To date, 7 patients have been treated at 0.25 mg/kg/dose every three weeks, and 6 patients have been treated at 0.50 mg/kg/dose every three weeks. For the pharmacokinetic study, blood samples were taken at pre-dose, 0 hour, and post-dose 1, 2, 4 and 8 hours on Day 1, followed by Days 2, 3, 4, 8 and 15 of Cycle 1; and pre-dose, 0 hour on Day 1 of Cycles 2, and post-treatment follow-up on Days 15, 30 and 60. Plasma/serum levels of REGN421 in the samples are measured by ELISA with an upper limit of quantification of 2.5 μg/mL and a lower limit of quantification of 0.039 μg/mL in the undiluted serum sample. The study is ongoing with the intent to administer higher doses, defined in the protocol as 1, 2, 4, and 7 mg/kg/dose.
The currently available data showing plasma pharmacokinetic parameters following single 30-min. Cmax: Maximum serum concentration of the drug; Tlast: Time to the last quantifiable concentration of the drug; Clast: Last quantifiable concentration of the drug; AUClast: Area under curve up to the last concentration of the drug; AUC: Total area under the curve (i.e., drug exposure); t1/2Z: Terminal half life; Vss: Volume of distribution at steady state; CL: Drug clearance rate. Values are: mean, (CV %), and [range] (a: median [range]).
(In general: ELISA stands for enzyme-linked immunosorbent assay.)

The test system of series [2] is human A549 tumor cells (non-small cell lung cancer). In words: Growth of human A549 tumors implanted in humanized Dll4 SCID mice. The series is classed as in vivo. As to conditions: REGN421 2 mg/kg sc (6 mg/kg total). The protocol:
Tumor growth delay, TGD, was assessed as the difference in days between treated (T) versus control (C) tumors when each cohort reached a specified tumor size. The predetermined tumor size for this experiment was 600 mm^3.
Each mouse was implanted subcutaneously (sc) with 5×10^6 human A549 tumor cells (non-small cell lung cancer or “NSCLC”). […] A total of 36 mice were divided into 6 groups (n=6 per cohort). The first group was treated sc with hFc at 2 mg/kg; the second group was treated sc with REGN421 at 2 mg/kg; the third and fourth groups were treated ip with cisplatin at 2.5 and 4.5 mg/kg, respectively; the fifth group was treated sc with REGN421 at 2 mg/kg and ip with cisplatin at 2.5 mg/kg; and the sixth group was treated sc with REGN421 at 2 mg/kg and ip with cisplatin at 4.5 mg/kg. REGN421 was administered every 3-4 days starting on day 29 and mice received three doses total. Cisplatin was administered every 24 hours starting on day 29 and mice received two doses total.
To assess the effects of REGN421 and cisplatin as single agents or in combination we measured tumor size (volume), beginning three days before the initial REGN421 treatment, on the day of each agent treatment (days 29, 30, 33, 36) and thereafter every 3-4 days until tumors reached ˜600 mm^3 in size.

A further series concerns human HCT116 tumor cells. The series can be described thus: Growth of human HCT116 tumors in humanized Dll4 SCID mice (irinotecan study). The format is in vivo. As to conditions: REGN421 2 mg/kg sc (6 mg/kg total). The protocol:
Each mouse was implanted subcutaneously (sc) with 5×10^6 human HCT116 tumor cells. […] The mice were then treated with hFc, REGN421, irinotecan or combination of REGN421 and irinotecan. A total of 30 mice were divided into 6 groups (n=5 per cohort). The first group was treated sc with hFc at 2 mg/kg; the second group was treated sc with REGN421 at 2 mg/kg; the third and fourth groups were treated ip with irinotecan at 7.5 and 25 mg/kg, respectively; the fifth group was treated sc with REGN421 at 2 mg/kg and ip with irinotecan at 7.5 mg/kg; and the sixth group was treated sc with REGN421 at 2 mg/kg and ip with irinotecan at 25 mg/kg. REGN421 was administered every 3-4 days starting on day 15 and mice received three doses total. Irinotecan was administered every 3-4 days starting on day 15 and mice received three doses total.
To assess the effects of REGN421 and irinotecan as single agents or in combination treatments, the changes in tumor size (volume) are measured, starting three days before the initial REGN421 treatment, and then on the day of each agent treatment (days 15, 19, 22) and thereafter every 3-4 days until tumors reach ˜600 mm^3 in size. In vivo tumor size is calculated using the formula (length×width^2)/2.

B1: REGN421 (antibody, V domains shown)
VH: QVQLVESGGGVVQPGRSLRLSCAASGFTFSSYGMHWVRQAPGKGLEWVSFLWYDGTNKNYVESVKGRFTISRDNSKNMLYLEMNSLRAEDTAVYYCARDHDFRSGYEGWFDPWGQGTLVTVSS
VL: EIVLTQSPATLSLSPGERATLSCRASQSVSSYLAWYQQKPGQAPRLLIYDASNRATGIPARFSGSGSGTDFTLTISSLEPEDFAVYYCQHRSNWPPTFGGGTKVEIK
Usually AUC stands for the area under the concentration-time curve, a measure of exposure. A low value points to less exposure. The term Cmax denotes the peak of the concentration-time curve. For orientation: Vss means the apparent volume that relates the amount in the body to the concentration in plasma or blood. A lower Vss goes with confinement near the circulation. Take B1: in series [1] (0.25 mg/kg IV, n = 7, mean), the AUC was 489 µg·h/mL, the AUClast is 452 µg·h/mL, the CL was determined as 0.0473 L/h and the Cmax was determined as 6270 ng/mL. In series [1] (0.25 mg/kg IV, n = 7, mean), this molecule came in with a T1/2Z of 47.1 h and a Vss of 2.85 L. In series [1] (0.25 mg/kg IV, n = 7, median), this molecule had a Tlast of 170 h. In addition, in series [1] (0.5 mg/kg IV, n = 2, mean), the AUC is 963 µg·h/mL, the AUClast was 759 µg·h/mL, the CL is 0.0355 L/h and the Clast was determined as 2240 ng/mL. In series [1] (0.5 mg/kg IV, n = 2, mean), this molecule gave a Cmax of 9880 ng/mL, a T1/2Z of 92.3 h and a Vss of 3.64 L. In series [1] (0.5 mg/kg IV, n = 2, median), the Tlast was determined as 203 h. Moreover, in series [2], the “TGD” value was found to be 8 days and the “TGI (%) at Day 57” value was 54%. Moreover, in the series with human HCT116 tumor cells, the “TGD” value amounted to 9 days and the “TGI(%) at Day 39” value came to 81.3%.
